The target in experiment [1] is T1, Cynomolgus monkey FcRn extracellular domain (non-covalent complex of Cynomolgus monkey FcRn alpha chain … (Cynomolgus monkey, UniProt Q8SPV9 24-297; Q8SPW0 21-119).
T1 construct: also called non-human primate FcRn
The experiment is described as follows: SPR Biacore T200, binder captured via anti-human F(ab')2, cyno FcRn ECD as analyte, pH7.4; pH 7.4. The protocol:
(§1) Biomolecular interaction analysis using surface plasmon resonance technology (SPR) was performed on a Biacore T200 system (GE Healthcare) and binding to Cynomolgus monkey FcRn extracellular domain determined. Cynomolgus monkey FcRn extracellular domain was provided as a non-covalent complex between the Cynomolgus monley FcRn alpha chain extracellular domain (SEQ ID NO: 17) and […] (β2M) (SEQ ID NO: 18). Affinipure F(ab′)₂ fragment goat anti-human IgG, F(ab′)₂-specific (Jackson ImmunoResearch Lab, Inc.) at 50 μg/ml in 10 mM NaAc, pH 5 buffer was immobilized on a CMS Sensor Chip via amine coupling chemistry to a capture level between 4000-5000 response units (RU) using HBS-EP⁺ (GE Healthcare) as the running buffer.
(§2) The antibody, 1735h5.hFab-scFv.768 diluted to0.5 μg/ml in running buffer and an injection of 60 s at 10 μl/min was used for capture by the immobilized anti-human F(ab′)₂. […] The surface was regenerated at 10 μl/min by 2×60 s 50 mM HCl for the running buffer at pH6 or by 60 s 40 mM HCl and 30 s 10 mM NaOH for the running buffer at pH7.4.
(§3) The data was analysed using Biacore T200 evaluation software (version 1.0) using the 1:1 binding model with local Rmax.
In general terms: SPR reads the build-up and loss of mass on a sensor chip optically.

Experiment [2] addresses T2, Human FcRn extracellular domain (non-covalent complex of human FcRn alpha chain extracellular domain and … (human, UniProt P55899 24-297; P61769 21-119).
T2 construct: also called hFcRn
The experiment is described as follows: SPR Biacore T200, binder captured via anti-human F(ab')2, FcRn ECD as analyte, pH7.4, average of 5; pH 7.4. The protocol:
(§4) Biomolecular interaction analysis using surface plasmon resonance technology (SPR) was performed on a Biacore T200 system (GE Healthcare) and binding to human FcRn extracellular domain determined. Human FcRn extracellular domain was provided as a non-covalent complex between the human FcRn alpha chain extracellular domain (SEQ ID NO: 21) and β2 microglobulin (β2M) (SEQ ID NO: 23). Affinipure F(ab′)₂ fragment goat anti-human IgG, F(ab′)₂-specific (Jackson ImmunoResearch Lab, Inc.) at 50 μg/ml in 10 mM NaAc, pH 5 buffer was immobilized on a CMS Sensor Chip via amine coupling chemistry to a capture level between 4000-5000 response units (RU) using HBS-EP⁺(GE Healthcare) as the running buffer.
(§5) The antibody, 1735h5.hFab-scFv.768 was diluted to 0.25 μg/ml in running buffer and an injection 60 s at 10 μl/min was used for capture by the immobilized anti-human F(ab)₂. […] The surface was regenerated at 10 μl/min by 2×60 s 50 mM HCl for the running buffer at pH6 or by 60 s 40 mM HCl and 30 s 10 mM NaOH for the running buffer at pH7.4. The data was analysed using Biacore T200 evaluation software (version 1.0) using the 1:1 binding model with local Rmax.

In experiment [3] the target is T1, Cynomolgus monkey FcRn extracellular …. Put plainly: SPR Biacore T200, binder captured via anti-human F(ab')2, cyno FcRn ECD as analyte, pH6, average of 5; pH 6. The protocol:
as §1, §2, §3

Experiment [4] has as its target T2, Human FcRn extracellular domain …. The experiment is described as follows: SPR Biacore T200, binder captured via anti-human F(ab')2, FcRn ECD as analyte, pH6, average of 5; pH 6. The protocol:
as §4, §5

Experiment [5] has as its target T1, Cynomolgus monkey FcRn extracellular …. The experiment is described as follows: SPR Biacore T200, binder captured via anti-human F(ab')2, cyno FcRn ECD as analyte, pH7.4, average of 5; pH 7.4. The protocol:
as §1, §2, §3

Experiment [6] concerns the target T2, Human FcRn extracellular domain …. The experiment is described as follows: SPR Biacore T200, binder captured via anti-human F(ab')2, FcRn ECD as analyte, pH6; pH 6. The protocol: as §4, §5
For experiment [7], the target named is T1, Cynomolgus monkey FcRn extracellular …. The experiment is described as follows: SPR Biacore T200, binder captured via anti-human F(ab')2, cyno FcRn ECD as analyte, pH6; pH 6. Here is the method: as §1, §2, §3

“And” between values parts separate entries of the source, which are not always exact repeats. Equal entries are not always repeated.

By kon is commonly meant the second-order rate constant of association. In general, Kd refers to a measure of binding affinity in units of concentration. A word on the koff: it is the first-order rate constant of dissociation.

B1: 1735h5.hFab-scFv.768 (bispecific antibody)
heavy: EVQLVESGGGLVQPGGSLRLSCAASGFSLSTYGVGVGWVRQAPGKGLEWLANIWWDDDKRYNPSLENRFTISRDNAKNSAYLQMNSLRAEDTAVYYCARTPAYYGSHPPFDYWGQGTMVTVSSASTKGPSVFPLAPSSKSTSGGTAALGCLVKDYFPEPVTVSWNSGALTSGVHTFPAVLQSSGLYSLSSVVTVPSSSLGTQTYICNVNHKPSNTKVDKKVEPKSCSGGGGTGGGGSEVQLLESGGGLVQPGGSLRLSCAVSGIDLSNYAINWVRQAPGKCLEWIGIIWASGTTFYATWAKGRFTISRDNSKNTVYLQMNSLRAEDTAVYYCARTVPGYSTAPYFDLWGQGTLVTVSSGGGGSGGGGSGGGGSGGGGSDIQMTQSPSSVSASVGDRVTITCQSSPSVWSNFLSWYQQKPGKAPKLLIYEASKLTSGVPSRFSGSGSGTDFTLTISSLQPEDFATYYCGGGYSSISDTTFGCGTKVEIKRT
light: DIQMTQSPSSLSASVGDRVTITCRTSEDIYTNLAWYQQKPGKVPKLLIYVAKTLQEGVPSRFSGSGSGTHYTLTISSLQPEDVATYYCLQGFKFPWTFGGGTKVEIKRTVAAPSVFIFPPSDEQLKSGTASVVCLLNNFYPREAKVQWKVDNALQSGNSQESVTEQDSKDSTYSLSSTLTLSKADYEKHKVYACEVTHQGLSSPVTKSFNRGEC
notes: Anti-FcRn Fab (1638.g49 V-regions) fused at the C-terminus of CH1 to an anti-albumin disulphide stabilised scFv; expressed in CHO DG44; Monovalent for FcRn; also called Fab-dsscFv fusion protein comprising the 1638.g49 variable domains; anti-hFcRn 1735h5.hFab-scFv.768
Regarding B1, the on-rate (kon) was 1e+06 M⁻¹ s⁻¹ (2×) and 999000 M⁻¹ s⁻¹ in experiment [1]; 861000 M⁻¹ s⁻¹ in experiment [2]; 1.25e+06 M⁻¹ s⁻¹ in experiment [3]; 1.13e+06 M⁻¹ s⁻¹ in experiment [4]; 1e+06 M⁻¹ s⁻¹ in experiment [5]; 1.2e+06 M⁻¹ s⁻¹ and 1.1e+06 M⁻¹ s⁻¹ (3×) in experiment [6]. The association rate constant (kon) in experiment [7] is 1.26e+06 M⁻¹ s⁻¹ and 1.24e+06 M⁻¹ s⁻¹. For the same molecule, the Kd stood at 0.0458 nM in experiment [2], 0.158 nM in experiment [3], 0.16 nM in experiment [4] and 0.045 nM in experiment [5]. In addition, the dissociation rate constant (koff) in experiment [2] came out at 3.94e-05 s⁻¹; in experiment [3], 0.000197 s⁻¹; in experiment [4], 0.000181 s⁻¹; in experiment [5] it was 4.52e-05 s⁻¹.

These data come from patent US20180127498A1 (UCB, published 2018).
